Measurements as given in US20080057063A1.

Target: cynomolgus αV (HEK-293 cells transfected with cynomolgus αV alone) (cynomolgus)
Assay: FACS, HEK-293 transfected with cynomolgus αV

Sequence of cynomolgus αV (HEK-293 cells transfected with cynomolgus αV alone) (cynomolgus) (chain, as listed by the source): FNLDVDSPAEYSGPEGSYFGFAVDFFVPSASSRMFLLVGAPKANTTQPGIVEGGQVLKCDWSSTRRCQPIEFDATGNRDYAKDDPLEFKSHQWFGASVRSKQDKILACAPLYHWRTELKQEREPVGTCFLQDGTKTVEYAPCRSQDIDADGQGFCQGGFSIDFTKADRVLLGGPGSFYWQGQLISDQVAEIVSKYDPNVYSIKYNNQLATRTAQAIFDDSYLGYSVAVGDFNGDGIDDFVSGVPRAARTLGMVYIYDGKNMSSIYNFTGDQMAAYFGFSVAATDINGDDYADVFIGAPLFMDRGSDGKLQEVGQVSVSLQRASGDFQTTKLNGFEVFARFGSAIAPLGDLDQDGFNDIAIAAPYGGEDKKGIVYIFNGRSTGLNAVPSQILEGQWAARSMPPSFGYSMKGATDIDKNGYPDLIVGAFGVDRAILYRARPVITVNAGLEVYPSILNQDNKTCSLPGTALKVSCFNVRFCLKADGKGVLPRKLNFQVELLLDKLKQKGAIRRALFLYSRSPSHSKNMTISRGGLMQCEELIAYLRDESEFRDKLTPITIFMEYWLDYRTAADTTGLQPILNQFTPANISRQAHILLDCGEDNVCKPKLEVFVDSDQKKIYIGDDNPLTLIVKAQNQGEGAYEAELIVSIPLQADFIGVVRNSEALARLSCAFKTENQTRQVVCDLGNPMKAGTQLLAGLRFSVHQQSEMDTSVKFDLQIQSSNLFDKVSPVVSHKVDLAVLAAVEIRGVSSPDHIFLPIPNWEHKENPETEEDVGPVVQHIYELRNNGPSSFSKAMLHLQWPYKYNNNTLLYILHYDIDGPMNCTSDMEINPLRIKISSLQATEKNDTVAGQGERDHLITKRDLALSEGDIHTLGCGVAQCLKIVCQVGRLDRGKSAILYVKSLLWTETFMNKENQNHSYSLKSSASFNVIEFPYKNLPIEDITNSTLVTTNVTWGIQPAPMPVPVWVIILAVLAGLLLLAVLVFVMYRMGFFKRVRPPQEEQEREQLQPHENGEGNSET

percent of cells shifted: 5%
B1: sc 133 (antibody, V domains shown)
VH: QVQLVQSGAEVKKPGASVKVSCKASGYTFTGYYMHWVRQAPGQGLEWMGWINPKSGDTNYAQKFQGRVTLTRDTSTSTAYMELSRLRSDDTAVYYCARRLDVWGQGTTVTVSS
VL: QSVLTQPPSVSAAPGQKVTISCSGSSSNIGNNYVSWYQQLPGTAPKLLIYDNNKRPSGIPDRFSGSKSGTSATLGITGLQTGDEADYYCGTWNSSLSAGYVFGTGTKVTV
